Patent US20200062847A1 (XIANGTAN TENGHUA BIOSCIENCE, published 2020)

Tests used:
mouse PD-1 = molecular target: T1, mouse PD-1 (mouse, UniProt Q02242 25-167, limits assumed); test: ELISA
T1 sequence (looked up): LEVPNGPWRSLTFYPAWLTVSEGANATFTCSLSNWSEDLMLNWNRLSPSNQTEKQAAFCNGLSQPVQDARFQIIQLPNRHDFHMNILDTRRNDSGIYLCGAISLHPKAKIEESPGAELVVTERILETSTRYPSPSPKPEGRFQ

recombinant human PD-1 [1] = molecular target: T2, recombinant human PD-1 (human, UniProt Q15116 25-167, limits assumed); test: competition ELISA on coated human PD-1, antibody titrated against 50 ng/ml Nivolumab as competitor; EC50 estimated at half-maximal absorbance
T2 construct: also called human PD-1 protein; soluble PD-1
Experimental: The assay was conducted essentially as follows. […] HRP-conjugated anti-human antibody was added and incubated.

recombinant human PD-1 [2] = molecular target: T2, recombinant human PD-1; test: SPR (Biacore), antibody captured via anti-human IgG
Experimental: This technology allows the label-free determination of the microscopic rate constants for binding (kₐ) and dissociation (kd) of a ligand to a receptor. […] The kinetic traces were evaluated with the Biacore™ T2000. The full set of these traces with increasing concentrations is taken together and is called a run. Two zero concentration samples (blank runs) were included in each analyte concentration series to allow double-referencing during data evaluation. The kinetic rate constants for association (kₐ) and dissociation (kd) as well as the dissociation equilibrium constant (KD) were calculated.

T2 sequence (Q15116 25-167 limits assumed): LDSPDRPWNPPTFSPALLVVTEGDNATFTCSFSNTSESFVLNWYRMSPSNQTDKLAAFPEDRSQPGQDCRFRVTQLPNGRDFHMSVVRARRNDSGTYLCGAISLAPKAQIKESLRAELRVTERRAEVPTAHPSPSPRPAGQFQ

Binder	binding result (mouse PD-1)	EC50 (recombinant human PD-1 [1]) [nM]	koff (recombinant human PD-1 [2]) [s⁻¹]	kon (recombinant human PD-1 [2]) [M⁻¹ s⁻¹]
Abs-r-924 (antibody, V domains shown, Rabbit recombinant antibody expressed in HEK293; also called rabbit anti-human-PD-1 recombinant antibody Abs-r-924) VH: QESVKESGGGLVKPGDTLTLTCKVSGFSISSYGMHWVRQAPGKGLEWIGVISYDGSNKYYADSVKGRFTISRNTNQNTVTLKMTSLTADDTATYFCARYYYYYGMDVWGQGTLVTVSS VL: EIVLTQTPSSVSAAVGSTVTINCRGSQSLSSYLAWYQQKPGQRPKLLIYDVSNRATGVPRRFKGSGSGTQFTLTISGVQADDAATYYCQQRTNWPRAFGGGTKVDVKG	no binding	–	–	–
Abs-h-924 (antibody, V domains shown, also called humanized anti-human-PD-1 recombinant antibody Abs-h-924) VH: QVQLVESGGGVVQPGRSLRLSCAASGFTFSSYGMHWVRQAPGKGLEWVAVISYDGSNKYYADSVKGRFTISRDNSKNTLYLQMNSLRAEDTAVYYCARYYYYYGMDVWGQGTTVTVSS VL: EIVLTQSPATLSLSPGERATISCRGSQSLSSYLAWYQQRPGQAPRLLIYDVSNRATGIPARFSGSGSGTDFTLTISGLEPEDFAVYYCQQRTNWPRAFGQGTKVEIKR	–	0.14	3.9e-06	1.22e+06
Abs-h-925 (antibody, V domains shown, also called humanized anti-human-PD-1 recombinant antibody Abs-h-925) VH: QVQLVDSGGGVVQPGRSLRLSCAASAFTFSSYAMHWVRQAPGKGLEWVAVISYDGSNKYYADSVKGRFTISRDNSKNTLYLQMNSLRAEDTAVYYCARYYYYYYMDVWGKGTTVTVSS VL: EIVLTQSPATLSLSPGERATLSCRASQSVSSYLAWYQQKPGQAPRLLIYEASNRATGIPARFSGSGSGTDFTLTISSLEPEDFAVYYCQQRTNWPPAFGQGTKVEIKR	–	0.15	3.2e-06	1.19e+06
Abs-h-923 (antibody, V domains shown) VH: QVQLVQSGAEVKKPGASVKVSCKASGYTFTSYAMHWVRQAPGQRLEWMGWSNAGNGNTKYSQEFQGRVTITRDTSASTAYMELSSLRSEDMAVYYCARYWYFDLWGRGTLVTVSS VL: EIALTQSPATLSLSPGERATLSCRASQSGSSFVAWYQQKPGQAPRLLIYANNKRETGIPARFSGSGSGTDFTLTISSLEPEDFAVYYCGTYTDSPPTFGQGTKVEIKR	–	0.41	7.9e-06	1.15e+06
